Assays:
[1] = biological target: T1, Bz-PGGYRAHAG-OH (acyl donor) / H-RAHAK(DNP)-OH (acyl acceptor) (Rattus norvegicus, UniProt P00763, D194K/K66E/Y45H/Y65H); assay: Maximum product yield of transamidation (Table 7); format: biochemical; details: Zinc ions (100 μM): yes; two equivalents of acyl acceptor and 250 μM acyl donor
T1 construct: made in house; host or cells: Pichia pastoris X-33
T1 sequence (P00763 24-246 Y45H/Y65H/K66E/D194K): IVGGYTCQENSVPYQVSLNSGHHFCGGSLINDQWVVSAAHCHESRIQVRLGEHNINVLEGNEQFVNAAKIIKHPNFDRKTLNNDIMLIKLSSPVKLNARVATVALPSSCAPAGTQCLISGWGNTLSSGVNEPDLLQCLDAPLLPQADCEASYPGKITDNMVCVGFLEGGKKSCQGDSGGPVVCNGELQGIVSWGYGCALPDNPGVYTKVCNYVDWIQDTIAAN
Method: (§1) Model transamidation reactions were performed in a solution containing 15 to 250 μM acyl donor, 2 eq. of the corresponding acyl acceptor, varying concentrations of trypsin variant, 100 mM HEPES/NaOH pH 7.8, ±0.1 mM ZnC12, 100 mM NaCl, 10 mM CaCl2) at 30° C. Acyl donor and acyl acceptor had the same amino acids in P1′-P3′ position, e.g. Bz-[…]+H-RAHAK-OH or Bz-[…]+H-RKKAK-OH. Variations are indicated. The acyl acceptor could be equipped with a 2,4-Dinitrophenyl group (DNP) at the side chain of the terminal lysine, e.g. H-RAHAK(DNP)-OH or H-RKKAK(DNP)-OH. The reactions were started by the addition of enzyme. To record the time course of product formation and/or for kinetic evaluation of the reaction several aliquots of the reaction mixture were quenched with 25% (v/v) acetic acid at distinct time points within up to 4 hours. The composition of the reaction mixture was analyzed by UPCL with method I or II, depending on the absence (method 1) or presence (method II) of a 2,4-dinitrophenyl group within the acyl acceptor (see example 1). Measurements were performed as duplicates and errors were less than 5%.

H-RAHAK(DNP)-OH = biological target: T2, H-RAHAK(DNP)-OH
T2 chain: RAHAK

[2] = system: R1-YRKK-R2 (Bz-PGGYRKKAG-OH) / H-RKKAK(DNP)-OH; assay: Zinc dependence of the transamidation reaction, A2C8 and K7F11, YRKK; format: biochemical; details: 100 μM acyl donor, 200 μM acyl acceptor
Method: as §1

[3] = system: anti-Her2-Fab-LC_RRKHAK(CF)/HC_YRAH (YRAH at heavy chain); assay: Orthogonal dual-modification of Her2-specific Fab-fragment, second step (heavy chain, DM1); format: biochemical
Excerpt: FIG. 6: Dual modification of a Fab-fragment by utilizing variation in substrate specificity of two Trypsiligase II variants. The HER2-specific Fab-fragment of Trastuzumab (anti-Her2-Fab-LC_RRKH/HC_YRAH, Heavy chain (SEQ ID NO: 2) and anti-Her2-Fab-LC_RRKH/HC_YRAH, Light chain (SEQ ID NO: 3)) was used and the respective recognition sequences genetically introduced. A) Trypsiligase II variant K7F11_H39Y/H59Y/K189D which recognizes the sequence RRKH was used in the first step for attachment of a carboxyfluorescein(CF)-bearing nucleophile. B) In the second step Trypsiligase II variant A2C8 which recognizes the sequence YRAH was used for modification with a nucleophile covalently bound to mertansine (DM1). Analysis by LC-MS. The amount of modified and unmodified Fab-fragment species for the first and second modification step are shown in MS spectrum A and B, respectively. […]
The second modification reaction of the heavy chain was performed in a solution containing 50 μM of the single modified aHer2-Fab-LC_RRKHAK(CF)/HC_YRAH, 1000 μM H-RKKAK(MCC-DM1)-OH, 5 μM A2C8, 100 mM HEPES/NaOH pH 7.8, 100 mM NaCl. […] The proportions of modified and unmodified Fab-fragment species for the first and second modification step were analyzed by LC-MS (see example 1). […] No modification upon the recognition sequence at the heavy chain had been monitored.

B1: Trypsiligase II (trypsin variant Y39H/Y59H/K60E/D189K) (protein)
chain: IVGGYTCQENSVPYQVSLNSGHHFCGGSLINDQWVVSAAHCHESRIQVRLGEHNINVLEGNEQFVNAAKIIKHPNFDRKTLNNDIMLIKLSSPVKLNARVATVALPSSCAPAGTQCLISGWGNTLSSGVNEPDLLQCLDAPLLPQADCEASYPGKITDNMVCVGFLEGGKKSCQGDSGGPVVCNGELQGIVSWGYGCALPDNPGVYTKVCNYVDWIQDTIAAN
product yield (%) [1]: 18.1%
KM, acyl acceptor (µM); zinc ions (100 µM): no; transamidation with 250 µM Bz-PGGYRAHAG-OH as acyl donor (H-RAHAK(DNP)-OH): 1630 µM
KM, acyl acceptor (µM); zinc ions (100 µM): yes; transamidation with 250 µM Bz-PGGYRAHAG-OH as acyl donor (H-RAHAK(DNP)-OH): 144 µM
fold increase of KM of the nucleophilic peptide without zinc ions against with zinc ions (H-RAHAK(DNP)-OH): increased by a factor of 11 to 1630 µM

B2: A2C8: Trypsiligase II + H40F, A55A, R96E, K97D, L99F, N143E, E151Y, S190V, Q192A, S214G, G219Q, A221T (protein)
chain: IVGGYTCQENSVPYQVSLNSGHFFCGGSLINDQWVVSAAHCHESRIQVRLGEHNINVLEGNEQFVNAAKIIKHPNFDEDTFNNDIMLIKLSSPVKLNARVATVALPSSCAPAGTQCLISGWGETLSSGVNYPDLLQCLDAPLLPQADCEASYPGKITDNMVCVGFLEGGKKVCAGDSGGPVVCNGELQGIVGWGYQCTLPDNPGVYTKVCNYVDWIQDTIAAN
kcat, AL^app + Zn^2+ (mkat/mol) ([2]; 0.1 mM ZnCl2): 18.04 mkat/mol
product yield + Zn^2+ (%) ([2]; 0.1 mM ZnCl2): 59.0%
kcat, AL^app − Zn^2+ (mkat/mol) ([2]; absence of zinc ions): 17.7 mkat/mol
product yield − Zn^2+ (%) ([2]; absence of zinc ions): 59.7%
yield of dual labeled Fab-fragment ([3]; estimated by mass spectrometry): approximately 75%
site of modification, second step ([3]; mass spectrometry): exclusively modification at the C-terminal end of the heavy chain

From patent US20220235344A1, “TRYPSIN VARIANTS WITH IMPROVED ENZYMATIC PROPERTIES” (BIOPHARMA TRANSLATIONSINSTITUT DESSAU FORSCHUNGS GMBH, priority 2018, published 2022)
